Experimental data taken from paper PMC10696041, “Identification of PCPE-2 as the endogenous specific inhibitor of human BMP-1/tolloid-like proteinases” (Nature Communications, 2023).

T1: bone morphogenetic protein-1 (human, UniProt P13497-2 121-730)
T1 construct: human BMP-1, the BMP-1 (BMP-1-1) splice variant of the BMP1 gene with CUB1-CUB2-EGF-CUB3 auxiliary domains; called full-length BMP-1 against the deletion mutants; also called BMP-1; BMP-1-1; source: Supplementary Methods
T1 sequence (looked up): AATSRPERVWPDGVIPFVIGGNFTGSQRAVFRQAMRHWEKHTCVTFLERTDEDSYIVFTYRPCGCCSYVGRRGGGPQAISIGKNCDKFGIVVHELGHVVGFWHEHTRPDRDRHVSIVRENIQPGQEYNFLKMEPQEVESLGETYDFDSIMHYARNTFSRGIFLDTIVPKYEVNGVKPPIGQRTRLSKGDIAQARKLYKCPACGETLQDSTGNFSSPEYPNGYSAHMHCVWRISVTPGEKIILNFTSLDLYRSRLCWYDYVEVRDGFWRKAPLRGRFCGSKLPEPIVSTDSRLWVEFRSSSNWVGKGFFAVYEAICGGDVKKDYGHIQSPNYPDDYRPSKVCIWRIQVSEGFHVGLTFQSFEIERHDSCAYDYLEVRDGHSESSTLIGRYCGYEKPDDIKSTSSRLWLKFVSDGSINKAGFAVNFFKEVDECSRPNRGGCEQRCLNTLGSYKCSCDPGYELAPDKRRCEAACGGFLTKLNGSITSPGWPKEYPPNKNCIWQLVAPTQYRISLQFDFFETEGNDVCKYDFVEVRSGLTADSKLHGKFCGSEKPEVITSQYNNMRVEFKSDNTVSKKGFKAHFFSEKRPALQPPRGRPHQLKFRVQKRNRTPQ

T2: procollagen C-proteinase enhancer 1, native form with no His tag (human, UniProt Q15113 26-449)
T2 construct: PCPE-1, native form with no His tag, used in the SPR analyses; The activity assays used another form, PCPE-1[Cter-8His]; also called PCPE-1
T2 sequence (looked up): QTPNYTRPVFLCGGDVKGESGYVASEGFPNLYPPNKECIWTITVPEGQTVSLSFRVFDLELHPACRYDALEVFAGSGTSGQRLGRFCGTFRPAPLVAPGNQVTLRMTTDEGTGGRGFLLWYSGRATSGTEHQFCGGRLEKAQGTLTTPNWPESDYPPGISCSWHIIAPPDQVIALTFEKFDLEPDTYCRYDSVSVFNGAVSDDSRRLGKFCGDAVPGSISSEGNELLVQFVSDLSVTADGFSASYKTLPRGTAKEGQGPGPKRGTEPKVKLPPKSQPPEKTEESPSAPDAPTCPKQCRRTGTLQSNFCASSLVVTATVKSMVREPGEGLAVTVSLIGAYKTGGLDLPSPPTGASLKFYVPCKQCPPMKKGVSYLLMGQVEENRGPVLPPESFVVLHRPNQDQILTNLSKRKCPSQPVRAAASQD

B1: CUB1CUB2 domains of PCPE-2 generated from PCPE-2 3C (domain or fragment, human, UniProt Q9UKZ9 24-270, looked up)
chain: QSPERPVFTCGGILTGESGFIGSEGFPGVYPPNSKCTWKITVPEGKVVVLNFRFIDLESDNLCRYDFVDVYNGHANGQRIGRFCGTFRPGALVSSGNKMMVQMISDANTAGNGFMAMFSAAEPNERGDQYCGGLLDRPSGSFKTPNWPDRDYPAGVTCVWHIVAPKNQLIELKFEKFDVERDNYCRYDYVAVFNGGEVNDARRIGKYCGDSPPAPIVSERNELLIQFLSDLSLTADGFIGHYIFRPK
notes: human PCPE-2 from its beginning to amino-acid 270; an HRV 3C-protease site was inserted between amino-acids 270 and 271 of full-length human PCPE-2; Residues of the two 3C sites are probably left on both ends after cleavage; also called the CUB domains of PCPE-2; not shown: His6, N-terminal, cleaved
B2: procollagen C-proteinase enhancer-2 with N-terminal 6His-tag (natural protein, human, UniProt Q9UKZ9 24-415, looked up)
chain: QSPERPVFTCGGILTGESGFIGSEGFPGVYPPNSKCTWKITVPEGKVVVLNFRFIDLESDNLCRYDFVDVYNGHANGQRIGRFCGTFRPGALVSSGNKMMVQMISDANTAGNGFMAMFSAAEPNERGDQYCGGLLDRPSGSFKTPNWPDRDYPAGVTCVWHIVAPKNQLIELKFEKFDVERDNYCRYDYVAVFNGGEVNDARRIGKYCGDSPPAPIVSERNELLIQFLSDLSLTADGFIGHYIFRPKKLPTTTEQPVTTTFPVTTGLKPTVALCQQKCRRTGTLEGNYCSSDFVLAGTVITTITRDGSLHATVSIINIYKEGNLAIQQAGKNMSARLTVVCKQCPLLRRGLNYIIMGQVGEDGRGKIMPNSFIMMFKTKNQKLLDALKNKQC
notes: human PCPE-2, called full-length; two mutations of the bought clone (829 G>T, 874 C>A) were corrected; The most widely used PCPE-2 construct of the study; also called PCPE-2; PCPE-2[Nter-6His]; not shown: His6, N-terminal, kept
B3: mini-procollagen III (domain or fragment)
chain: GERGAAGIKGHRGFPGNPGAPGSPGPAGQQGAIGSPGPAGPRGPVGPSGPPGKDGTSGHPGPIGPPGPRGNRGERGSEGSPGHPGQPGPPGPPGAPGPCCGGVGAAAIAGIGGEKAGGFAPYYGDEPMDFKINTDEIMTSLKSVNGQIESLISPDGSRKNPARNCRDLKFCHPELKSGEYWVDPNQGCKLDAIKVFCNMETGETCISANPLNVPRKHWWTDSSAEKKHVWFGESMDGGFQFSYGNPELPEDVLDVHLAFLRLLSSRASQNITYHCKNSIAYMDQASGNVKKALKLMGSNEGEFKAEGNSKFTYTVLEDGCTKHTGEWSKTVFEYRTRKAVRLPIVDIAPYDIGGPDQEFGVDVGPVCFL
modifications: Homotrimer. The paper does not print the limits. The start assumes the last 33 Gly-X-Y triplets (helix end at 1196), recalled from earlier descriptions of this construct, followed by the intact …

Columns and labels:
Settings in all cases: both partners purified
[1] = molecular target: T1, bone morphogenetic protein-1; assay: SPR; BMP-1 immobilised by amine coupling on CM5 (974, 1302 or 1492 RU); 10 mM HEPES pH 7.4, 0.15 M NaCl, 5 mM CaCl2, 0.05% P20, 25 °C; PCPE-2 1.56-100 nM with steady-state fit (heterogeneous ligand model for kinetics), 50 nM for comparisons
[2] = molecular target: T1, bone morphogenetic protein-1; assay: enzyme inhibition assay (fluorogenic peptide cleavage); apparent; 7 nM BMP-1, 20 µM Mca-YVADAPK(Dnp)-OH, PCPE-2 0.07-690 nM, 50 mM HEPES pH 7.4, 5 mM CaCl2, 0.02% βOG, 37 °C; Morrison equation for tight-binding inhibitors with a constant for partial inhibition
[3] = molecular target: B2; assay: SPR; mini-procollagen III immobilised by amine coupling on CM5 (435, 437 or 651 RU); analytes in 10 mM HEPES pH 7.4, 0.15 M NaCl, 5 mM CaCl2, 0.05% P20, 25 °C; steady-state fit for constants, 50 nM single injections for the CUB1CUB2* mutants
[4] = molecular target: T2, procollagen C-proteinase enhancer 1, …; assay: as above
[5] = molecular target: B1; assay: as above

## B1
[1]
  binding result: binds

## B2
[1]
  Kd: 8.4 nM
[2]
  Ki: 2.8 nM

## B3
[3]
  Kd: 11 nM
[4]
  Kd: 2.2 nM
[5]
  Kd: ~30 nM
